To fix the notation:
B1: TPR 5TU (parent)
chain: GGAUCUUCUCGAUCUAACAAAAAAGACAAAUCUGCCACAAAGCUUGAGAGCAUCUUCGGAUGCAGAGGCGGCAGCCUUCGGUGGCGCGAUAGCGCCAACGUUCUCAACUAUGACACGCAAAACGCGUGCUCCGUUGAAUGGAGUUUAUCAUG

Fewer inactive variants are shown than the library holds. Some results are limits rather than exact numbers.

The data set covers variants of B1. Nature of the data set: polymerase ribozyme fitness, log enrichment relative to wild type (log ratio); higher = more active; in vitro selection for triplet polymerase activity. The essentials:
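A single round of triplicate in vitro selection, including frozen incubation at −7 °C, was applied to PCR-built, transcribed mutant libraries of each subunit of a heterodimeric triplet polymerase ribozyme. Illumina sequencing of input and output libraries retained genotypes with ≥10 input reads and ≥1 read per output. Fitness is the base-2 logarithm of genotype enrichment divided by wild-type enrichment, from inverse-variance-weighted replicate averages.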
For the variant A21U A23U A24C C54U G81A C85U, the “polymerase ribozyme fitness (log ratio)” value was no more than -4.2.
As for C5G C10A G11A A30U A49C C93U G136A, the “polymerase ribozyme fitness (log ratio)” value is no more than -4.2.
For C14U U15G A41C A49C C54G C75G C96U C123A A137U G141A G143C the value was no more than -4.2; for C5A A12C A19U U102G C116A A119G U135A G136C, no more than -4.2.
For C95U C116G U135A the value was -2.67.
In the case of G83C C95U G126A, the “polymerase ribozyme fitness (log ratio)” value is -2.05.
For A16C C51U C87G C118G G133U, the “polymerase ribozyme fitness (log ratio)” value was no more than -4.2.
Regarding C27U A28U U53G C93A, the “polymerase ribozyme fitness (log ratio)” value is no more than -4.2.
Take G34U A60C G62A G70A G83C C95G U104C: the “polymerase ribozyme fitness (log ratio)” value was no more than -4.2.
For U55G A60G G133U G136C the value was no more than -4.2; for A20G C51U G58A C85U A106U, -2.76.
In the case of A19C U56A A91U A147C it was no more than -4.2; in that of A19U U55A C63A A142U U148C, no more than -4.2.
For G94U G141C U144G, the “polymerase ribozyme fitness (log ratio)” value was -1.83.
For C8U C10A A23C G59U G88U the value was no more than -4.2; for A23U G46U G67U C96G U146G U151A, no more than -4.2; for U61G C93G A98U A138C, no more than -4.2.
In the case of A20G C54G U82A A98U U144A, the “polymerase ribozyme fitness (log ratio)” value was -4.1.
As to A12G C32U C85A A137C, the “polymerase ribozyme fitness (log ratio)” value was no more than -4.2.
With A41U G62C G136U, the “polymerase ribozyme fitness (log ratio)” value was -3.69.
As to G86A U90C U102C A137G, the “polymerase ribozyme fitness (log ratio)” value was no more than -4.2.
For C96U U102C C125U, the “polymerase ribozyme fitness (log ratio)” value was -2.51.
For A20G G46A U55G G70A C76U G84A C96U C103G C114U G152U, the “polymerase ribozyme fitness (log ratio)” value is no more than -4.2.
On to A41U U44A G65C C85G G143U, for which the “polymerase ribozyme fitness (log ratio)” value was no more than -4.2.
In the case of G42C G92A it was no more than -4.2; in that of U6G C35U C76A C87U, -2.63; in that of C14G A30C G50A C76U C87A A107G U111C A120U, no more than -4.2.
Consider G50A C75U G83U C93U G141A, for which the “polymerase ribozyme fitness (log ratio)” value is no more than -4.2.
Consider A39U G80A C123G, for which the “polymerase ribozyme fitness (log ratio)” value was -2.65.
A17U U33G A52C: the “polymerase ribozyme fitness (log ratio)” value is no more than -4.2.
In the case of A41C C93U C123U it was -1.59; in that of C5A G58A G86U, -1.52.
For C108A A121U, the “polymerase ribozyme fitness (log ratio)” value is no more than -4.2.
For the variant U13C C18U, the “polymerase ribozyme fitness (log ratio)” value came to 0.127.
In the case of A49U C85U, the “polymerase ribozyme fitness (log ratio)” value is -2.25.
For the variant C5U A47C G59A C87U C93U, the “polymerase ribozyme fitness (log ratio)” value is -3.16.
For the variant A39G G50C G65C A110G A120G, the “polymerase ribozyme fitness (log ratio)” value is no more than -4.2.
Regarding A41U U145A, the “polymerase ribozyme fitness (log ratio)” value was -0.141.
On to C51U G92A, for which the “polymerase ribozyme fitness (log ratio)” value is -3.5.
For A66G C85U G86U, the “polymerase ribozyme fitness (log ratio)” value is no more than -4.2.
Turning to U55A C85A G100A A121G C131A, the “polymerase ribozyme fitness (log ratio)” value was no more than -4.2.
Consider C85A C103A A147G, for which the “polymerase ribozyme fitness (log ratio)” value was no more than -4.2.
For C35A A60G C87U C96A G136A U146A, the “polymerase ribozyme fitness (log ratio)” value is -4.03.
In the case of A12C G58A G84U A115U it was -3.83.
For A12U A23U U45C A97G A98U C131G C132U, the “polymerase ribozyme fitness (log ratio)” value is -4.12.
For C105A C129G the value was no more than -4.2; for C32A C85G, no more than -4.2.
On to C54U G84U, for which the “polymerase ribozyme fitness (log ratio)” value was -2.22.
Take C54U G71A A97U C105U A106C: the “polymerase ribozyme fitness (log ratio)” value was no more than -4.2.
Regarding C27A A49C G59C G74C G136U, the “polymerase ribozyme fitness (log ratio)” value is no more than -4.2.
For C5A A16U G59U, the “polymerase ribozyme fitness (log ratio)” value was -1.5.
Turning to A16C C27G U53A C54A G74A G94A, the “polymerase ribozyme fitness (log ratio)” value was no more than -4.2.
As for C32A C38U U55A G94A G126C, the “polymerase ribozyme fitness (log ratio)” value is -3.92.
C36U C51G C76G G81C A107G G143A: the “polymerase ribozyme fitness (log ratio)” value is no more than -4.2.
As to G50U A113C U139G, the “polymerase ribozyme fitness (log ratio)” value is -3.93.
Take U9C A37C U55G A66C G70C C76A C131U: the “polymerase ribozyme fitness (log ratio)” value is no more than -4.2.
Take C8A U44C C79G G86C G140U: the “polymerase ribozyme fitness (log ratio)” value is no more than -4.2.
For C57U A60C G86A C105G, the “polymerase ribozyme fitness (log ratio)” value was no more than -4.2.
As for C8U A17U G42C C116U C125U U146G, the “polymerase ribozyme fitness (log ratio)” value was no more than -4.2.
With A21U U61A G88A, the “polymerase ribozyme fitness (log ratio)” value was no more than -4.2.
As for U4C C96A, the “polymerase ribozyme fitness (log ratio)” value was -0.253.
For A19U A23G G84A U101G A115C, the “polymerase ribozyme fitness (log ratio)” value is -3.62.
As to G126A A142C, the “polymerase ribozyme fitness (log ratio)” value is -3.28.
As to A26U U55G G86C C96U A97C C99A U102G, the “polymerase ribozyme fitness (log ratio)” value was no more than -4.2.
Regarding G48A C93G, the “polymerase ribozyme fitness (log ratio)” value was -3.69.
A12G A29G U55A C85U C96U C105U: the “polymerase ribozyme fitness (log ratio)” value is no more than -4.2.
For the variant A26U A40G A41C A49G C51U A52C U90A G92A C95U A97C C118A A137G U151C, the “polymerase ribozyme fitness (log ratio)” value is no more than -4.2.
A23G A26U G94C A110C: the “polymerase ribozyme fitness (log ratio)” value was no more than -4.2.
U56A C132G A137U: the “polymerase ribozyme fitness (log ratio)” value was -4.03.
With G58A C95U G143C, the “polymerase ribozyme fitness (log ratio)” value is -1.9.
In the case of A22U U55G A73C G86A C116A A142U it was no more than -4.2; in that of U33C A122G U127G, no more than -4.2.
As for C54U G59C A60U A66C, the “polymerase ribozyme fitness (log ratio)” value was no more than -4.2.
On to C87U U90C, for which the “polymerase ribozyme fitness (log ratio)” value was -3.33.
For C75G G92U the value was -2.52; for A47C C51U C54U A73C A122U, no more than -4.2; for C5A C27U U33G C79A, no more than -4.2.
Take A26C C57U C85G G92U: the “polymerase ribozyme fitness (log ratio)” value is no more than -4.2.
For C75U A142C the value was -1.32; for C18U A20C G34U C76A C79A G88A, no more than -4.2.
As for U61A A73G G94U, the “polymerase ribozyme fitness (log ratio)” value is -3.
For A49C G81A G92U C93U G140U G152C, the “polymerase ribozyme fitness (log ratio)” value was no more than -4.2.
Consider A28G C32U G50A C85A, for which the “polymerase ribozyme fitness (log ratio)” value is no more than -4.2.
Consider C14A U53A G94C, for which the “polymerase ribozyme fitness (log ratio)” value was -3.67.
